Publication PMC8939767 (Science Translational Medicine, 2022)
Where no end group is shown, it is not given here. The star is where a group is joined. Biotin = O=C1N[C@H]2[C@H](CS[C@H]2CCCCC(=O)*)N1

Legend:
[1] = target: T1, HCoV-HKU1 stem peptide variant, 20-mer with 5 additional residues at the N-terminus (HCoV-HKU1 isolate N1 (AAT98580.1), UniProt Q5MQD0, biotin on the N-terminus); assay: BLI; details: both partners purified
T1 construct: also called 20-mer (brick red); source: synthetic peptide
T1 chain: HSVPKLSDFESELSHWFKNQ

[2] = target: T2, HCoV-HKU1 stem peptide variant, 20-mer with 5 additional residues at the C-terminus (HCoV-HKU1 isolate N1 (AAT98580.1), UniProt Q5MQD0, biotin on the N-terminus); assay: BLI; details: both partners purified
T2 construct: also called 20-mer (orange); source: synthetic peptide
T2 chain: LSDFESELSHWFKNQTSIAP

[3] = target: T3, HCoV-HKU1 25-residue S2 stem peptide (residues 1226-1250) (HCoV-HKU1 isolate N1 (AAT98580.1), UniProt Q5MQD0, biotin on the N-terminus); assay: BLI; details: both partners purified
T3 construct: also called 25-mer (red); 25-mer S2 peptide from HCoV-HKU1; source: synthetic peptide
T3 chain: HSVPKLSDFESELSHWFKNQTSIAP

[4] = target: T4, HCoV-HKU1 soluble spike ectodomain protein (HCoV-HKU1, isolate N1 by the GenBank …, UniProt Q5MQD0); assay: BLI; details: both partners purified
T4 construct: also called HCoV-HKU1 soluble spike protein; source: FreeStyle293-F, transfected, purified (Ni-NTA, SEC)

[5] = target: T5, HCoV-HKU1 spike protein, full length, expressed on 293T cells (HCoV-HKU1, isolate N1 by the GenBank …, UniProt Q5MQD0); assay: flow cytometry on cells; details: one partner purified
T5 construct: source: HEK293T, transfected, on the cell surface

[6] = target: T6, HCoV-HKU1 S2 95th 15-mer stem peptide (residues 1231-1245), biotinylated (HCoV-HKU1 isolate N1 (AAT98580.1), UniProt Q5MQD0); assay: ELISA; […], mAb in 1% BSA/PBST, […]; details: both partners purified
T6 construct: also called 95th 15-mer peptide; HCoV-HKU1 95th 15-mer stem peptide; source: synthetic peptide (A&A Labs, Synthetic Biomolecules)
T6 chain: Biotin-LSDFESELSHWFKNQ

[7] = target: T7, SARS-CoV-2 S2 stem-helix 25-mer peptide, N-terminal biotinylated (wild type) (SARS-CoV-2, UniProt P0DTC2, biotin on the N-terminus); assay: BLI; […], Octet buffer (PBS plus 0.1% Tween-20), association 120 s, […]; details: both partners purified
T7 construct: also called SARS-CoV-2 stem-helix peptide; SARS-CoV-2 stem peptide (25mer); source: synthetic peptide
T7 chain: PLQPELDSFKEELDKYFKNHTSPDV

[8] = target: T8, SARS-CoV-2 25-mer S2 stem peptide (as used for the crystal and for competition of neutralization) (SARS-CoV-2, UniProt P0DTC2); assay: crystal structure; details: both partners purified
T8 construct: also called SARS-CoV-2 S2 peptide; SARS-CoV-2 stem peptide; source: synthetic peptide
T8 chain: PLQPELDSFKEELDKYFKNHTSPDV

Measured: binding result

T5 sequence (Q5MQD0 13-1356): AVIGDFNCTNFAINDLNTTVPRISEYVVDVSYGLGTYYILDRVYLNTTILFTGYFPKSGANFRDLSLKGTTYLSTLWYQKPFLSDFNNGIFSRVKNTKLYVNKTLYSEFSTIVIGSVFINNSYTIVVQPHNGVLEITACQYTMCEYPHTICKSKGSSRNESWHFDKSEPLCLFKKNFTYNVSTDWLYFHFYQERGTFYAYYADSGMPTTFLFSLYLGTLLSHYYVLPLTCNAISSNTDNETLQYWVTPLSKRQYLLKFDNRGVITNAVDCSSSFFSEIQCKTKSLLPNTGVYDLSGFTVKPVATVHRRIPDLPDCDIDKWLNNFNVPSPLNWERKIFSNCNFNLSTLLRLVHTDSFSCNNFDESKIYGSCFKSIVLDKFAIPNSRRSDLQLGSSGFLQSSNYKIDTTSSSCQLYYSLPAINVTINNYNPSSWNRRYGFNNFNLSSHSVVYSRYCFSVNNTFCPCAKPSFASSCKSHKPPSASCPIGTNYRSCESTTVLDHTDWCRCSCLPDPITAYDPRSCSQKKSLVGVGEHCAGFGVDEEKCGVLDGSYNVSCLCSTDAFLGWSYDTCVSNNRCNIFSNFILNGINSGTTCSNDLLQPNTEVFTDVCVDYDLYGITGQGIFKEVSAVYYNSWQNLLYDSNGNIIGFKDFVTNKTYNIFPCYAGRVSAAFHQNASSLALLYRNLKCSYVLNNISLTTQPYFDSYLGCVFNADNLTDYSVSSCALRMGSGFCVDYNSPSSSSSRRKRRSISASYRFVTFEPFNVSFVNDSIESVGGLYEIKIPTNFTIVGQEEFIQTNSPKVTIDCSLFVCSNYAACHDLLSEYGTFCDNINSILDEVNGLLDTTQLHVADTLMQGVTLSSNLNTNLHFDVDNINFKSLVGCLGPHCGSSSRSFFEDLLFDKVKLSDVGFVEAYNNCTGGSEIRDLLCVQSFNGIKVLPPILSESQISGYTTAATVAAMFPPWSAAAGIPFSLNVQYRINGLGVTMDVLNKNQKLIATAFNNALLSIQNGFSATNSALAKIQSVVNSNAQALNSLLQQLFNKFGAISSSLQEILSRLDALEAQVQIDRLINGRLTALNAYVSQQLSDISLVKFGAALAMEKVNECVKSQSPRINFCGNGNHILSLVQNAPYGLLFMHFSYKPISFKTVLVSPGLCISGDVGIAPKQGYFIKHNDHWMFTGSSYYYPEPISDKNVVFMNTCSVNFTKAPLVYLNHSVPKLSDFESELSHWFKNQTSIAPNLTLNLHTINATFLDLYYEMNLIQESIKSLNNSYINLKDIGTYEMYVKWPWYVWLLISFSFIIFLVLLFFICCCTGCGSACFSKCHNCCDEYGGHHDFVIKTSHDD

B1: CC40.8 broadly neutralizing antibody (IgG) (antibody, V domains shown)
VH: EVQLLESGGGLVQPGGSLRLSCAASGFTFSSYVMTWARQAPGKGLEWVSAISGTGYTYYADSVKGRFTVSRDNSKNTLFLQMSSLRAEDTAVYYCAITMAPVVWGQGTTVTVSS
VL: SYELTQPPSVSVSPGQTARITCSGDALPKRYAYWYQQKSGQAPILVIYEDKKRPSGIPERLSGSKSGTVATLTISGAQVEDEADYYCYSTDSSGNHAVFGGGTQLTVL
notes: also called CC40.8 bnAb; CC40.8 mAb
not listed: [8]
binds: all other assays above

B2: CC40.8 Fab (Fab, V domains shown)
VH: B1 VH
VL: B1 VL
notes: also called CC40.8 antibody Fab fragment
binds: [8]
